Data on one substance can be found in US20210238252A1.

In this assay the target is Fc receptor CD16 (UniProt P08637). Nature of the assay: cell-based or functional assay.
Sequence of Fc receptor CD16 (P08637 17-254 limits assumed): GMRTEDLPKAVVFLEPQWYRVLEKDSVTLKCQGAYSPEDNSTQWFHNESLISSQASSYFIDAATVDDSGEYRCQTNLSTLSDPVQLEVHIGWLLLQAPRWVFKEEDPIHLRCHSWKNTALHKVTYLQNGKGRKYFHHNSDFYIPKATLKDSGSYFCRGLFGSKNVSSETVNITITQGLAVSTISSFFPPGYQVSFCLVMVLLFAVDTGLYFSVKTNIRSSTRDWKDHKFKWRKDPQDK

IgGb12 (antibody) had an IC50, ADCC: killing of BaL-infected CEM.NKR.CCR5+ Luc cells by KHYG-1 CD16+ NK cells of 0.0662 mg/L.
